Patent US20250186604A1 (ADC THERAPEUTICS, published 2025)

B1: D2B (antibody, V domains shown)
VH: EVKLQESGPGLVKPSQSLSLTCSVTGYSITSGYYWNWIRQFPGNKLEWMGSISFDGNNNYNPSLRNRISITRDTSKNQFFLKLNSVTTEDTATYYCAREGDYYGSSFFTYWGQGTLVTVS
VL: DIVMTQSPASLSASVGETVTLTCGASENIYGALNWYQRKQGKSPQLLIYGATNLADGMSSRFSGSGSGRQYSLKISSLHPDDVATYYCQNVFRTYTFGGGTKLEIKR
B2: MDX 2A10 (antibody, human IgG1, kappa, V domains shown)
VH: EVQLVQSGAEVKKPGESLKISCKGSGYSFTSNWIGWVRQMPGKGLEWMGIIYPGDSDTRYSPSFQGQVTISADKSISTAYLQWSSLKASDTAMYYCARQTGFLWSSDLWGRGTLVTVSS
VL: AIQLTQSPSSLSASVGDRVTITCRASQDISSALAWYQQKPGKAPKLLIYDASSLESGVPSRFSGYGSGTDFTLTINSLQPEDFATYYCQQFNSYPLTFGGGTKVEIKR
notes: also called antibody 2A10
B3: J415 (antibody, V domains shown)
VH: EVKLEESGGGLVQPGGSMKLSCVASGFTFSNYWMNWVRQSPEKGLEWVAEIRSQSNNFATHYAESVKGRVIISRDDSKSSVYLQMNNLRAEDTGIYYCTRRWNNFWGQGTTLTVSS
VL: NIVMTQFPKSMSISVGERVTLTCKASENVGTYVSWYQQKPEQSPKMLIYGASNRFTGVPDRFTGSGSATDFILTISSVQTEDLVDYYCGQSYTFPYTFGGGTKLEMK

What follows are binders tested against T1, Human PSMA (Prostate-Specific Membrane Antigen) (human, UniProt Q04609 44-750, limits assumed) (assay: ELISA, human PSMA coated on plate, anti-human-IgG-HRP detection).
T1 construct: Coated on a 96 well plate at 3 ug/ml
T1 sequence (Q04609 44-750 limits assumed): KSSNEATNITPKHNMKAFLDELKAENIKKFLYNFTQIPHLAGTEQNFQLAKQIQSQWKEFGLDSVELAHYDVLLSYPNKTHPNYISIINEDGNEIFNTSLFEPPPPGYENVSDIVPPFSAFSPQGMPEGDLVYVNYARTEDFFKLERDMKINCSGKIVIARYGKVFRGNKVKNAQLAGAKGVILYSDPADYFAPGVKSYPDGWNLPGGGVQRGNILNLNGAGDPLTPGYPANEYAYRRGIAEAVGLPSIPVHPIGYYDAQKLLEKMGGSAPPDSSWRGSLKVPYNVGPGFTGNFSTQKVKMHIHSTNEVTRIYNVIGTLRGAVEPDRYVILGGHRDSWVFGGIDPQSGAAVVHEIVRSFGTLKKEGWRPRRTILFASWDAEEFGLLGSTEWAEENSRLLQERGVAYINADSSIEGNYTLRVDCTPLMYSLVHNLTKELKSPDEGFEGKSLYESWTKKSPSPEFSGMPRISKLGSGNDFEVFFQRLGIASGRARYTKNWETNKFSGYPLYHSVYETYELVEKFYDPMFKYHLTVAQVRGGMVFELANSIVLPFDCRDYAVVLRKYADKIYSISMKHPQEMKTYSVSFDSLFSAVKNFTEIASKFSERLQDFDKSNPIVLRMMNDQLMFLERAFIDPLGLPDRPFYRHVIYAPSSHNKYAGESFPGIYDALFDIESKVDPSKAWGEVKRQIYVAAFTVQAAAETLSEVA
Experimental: Human PSMA was coated on a 96 well plate at 3 μg/ml for at least two hours at room temperature. The plate was washed with wash buffer (0.05% Tween-20 in PBS), then blocked with blocking buffer (3% BSA in PBS) washed again using wash buffer. After which antibodies were titrated from 66.6 nM to 0.013 nM and added to the plate and incubated at room temperature for one hour, after which the plate was washed and anti-human-IgG-HRP added, the plate was incubated for a further 1 hour at room temperature, before being washed and TMB detection reagent added, the reaction was stopped by the addition of 1M HCl to the wells, after which the plate was read at 450 nm using the SpectraMax plate reader.

Row | Binder | EC50 [nM]
1 | B1 | 0.173
2 | B2 | 0.115
3 | B3 | 24.8
